Results as given in a protein production outcome set (Wang et al. 2014).

experiment: label from the status in PepcDB records

| Sequence | protein production |
| --- | --- |
| MAADHTDVLIVGAGPTGLFAGFYVGMRGLSFRFVDPLPEPGGQLTALYPEKYIYDVAGFPKVYAKDLVKGLVEQVAPFNPVYSLGERAETLEREGDLFKVTTSQGNAYTAKAVIIAAGVGAFEPRRIGAPGEREFEGRGVYYAVKSKAEFQGKRVLIVGGGDSAVDWALNLLDTARRITLIHRRPQFRAHEASVKELMKAHEEGRLEVLTPYELRRVEGDERVRWAVVFHNQTQEELALEVDAVLILAGYITKLGPLANWGLALEKNKIKVDTTMATSIPGVYACGDIVTYPGKLPLIVLGFGEAAIAANHAAAYANPALKVNPGHSSEKAAPGT | not failed |
| MAAGAAEAAVAAVEEVGSAGQFEELLRLKAKSLLVVHFWAPWAPQCAQMNEVMAELAKELPQVSFVKLEAEGVPEVSEKYEISSVPTFLFFKNSQKIDRLDGAHAPELTKKVQRHAS | not failed |
| MAAGRHCRAPHRCQTHPRLIALGHNHRMNAQLTQELPEFPTWLNARPSTLQEHRGRALVLAFVNASSVWCAERLAELAHWQARSPGRLQVIVVQVPRFDSERLPQRSLKQLRGHGVSAPILLDKDWETWRRFGIESWPTLVLLDAYGRERQRLVGVTGDLDKALTALCEGQPPPSDADLHGVAEREPEPHLALRFPTGLAATEDRLYVADTGHHRVLECTHSGRVLRQFGHGNADLIDGGVGEAAFRRPQGLALERDQLYVADTGNHALRRINLRSGQVDTLCGTGRSGEPVEGPLASPGGSALNYPQGLAIADNQVLIAMAGDNRIWSYHLGRAALTARAGTGALEIRDGSGHLAAFAQPAGLASVQQVAYVCDGLGSSIRTMQLRGDLVQTLVGGQGTWQFGDQDGPRSTARLQFPQAIALAADSPLLWIADTGNGRLRCLRLGGGELTTVALPRRLHGPAGLAVAAGAVWIAETDAHAILRYDLASGALSDVSIDE | failed |
| MAAGSLLTLLDDIATLLDDVALATKKTAGVLGDDLALNAQQVTGVSADRELPVVWAVAKGSLLNKAILVPAALLISAFAPWAILPLLMIGGAFLCFEGFEKIAHKWLHPEAGEEHDQRKQAATDASVDMVAFEKERIKGAIRTDFILSAEIIVLALGVVSARPFMDQVGVLVIVAVLITVGVYGLVAGIVKLDDLGLHLKRTASSVAQTIGSALLWLAPVLMKVLSIVGTAAMFMVGGGILVHGLPFAHHWADGVTEAASAAVGGLSMIVPTLIDAIAGIIAGAVLVLIVTLVGKVWKAARE | not failed |
| MAAGTDSTGTFATRHSANECLQLQERLWLLEQIAGSASRTALRTTVARGNECRLASCIDLNPEGRPILPSCSALGRAGAAARCCAGRRGRSRARARPAGQTGGGSRVAAECRHISHRGGRGIPVSGGGGAWRSGGASNGRGVFLRPAGTGGSRLATGARQANLGCGPRPACPPAMDQDYERRLLRQIIIQNENTVPCVSEMRRTLTPANSPVSSPSKHGDRFIPSRAGANWSVNFHRINENEKSPSQNRKAKDATSDNGKDGLAYSALLKNELLGAGIEKVQDPQTEDRRLQPSTPEHKGLFTYSLSSKRSSPDDGNDVSPYSLSPVSNKSQKLLRSPRKPTRKISKIPFKVLDAPELQDDFYLNLVDWSSLNVLSVGLGTCVYLWSACTSQVTRLCDLSVEGDSVTSVGWSERGNLVAVGTHKGFVQIWDAAAGKKLSVLEGHTARVGALAWNADQLSSGSRDRMILQRDIRTPALQSERRLQGHRQEVCGLKWSTDHQLLASGGNDNKLLVWNHSSLSPVQQYTEHLAAVKAIAWSPHQHGLLASGGGTADRCIRFWNTLTGQPLQCIDTGSQVCNLAWSKHANELVSTHGYSQNQILVWKYPSLTQVAKLTGHSYRVLYLAMSPDGEAIVTGAGDETLRFWNVFSKTRSTKESVSVLNLFTRIR | failed |
| MAAGTFTAQNKVRPGVYINFKSEPQAAGTLGERGIVSMPLILSWGEPGKMITIEAGDDVFPKLGYSIMDAQLRLINEALKRAKTLLLYRLNAGTKAAVTVGNLTVTAKWGGARGNDITLVIQENIDDETKFDVSTLVDGAELDKQTVSDIAGLAANDWVIFSGTGALTETAGAPLINGSDGAVTNQAYIDYLAAVEIFDFNTIALPSTDDALKATFTAFAKRLRDDEGKKIQVVLENYPAADYEGVISVKNGVVLADGTILTAAQATAWVAGATAGARVNESLTYQGYDEAVDVAPRYTNAQIIAALQAGEFLFTASDNQALVEQDINTLTSFTADKGKQFAKNRVIRVLDGINNDFVRIFSKFYIGKVSNNADGRNLLKSECINYMNTLQDIDAIKNFDGQTDLTVQSGNDVDAVYIEAYAWPVDSIEKIYVRVRIKLEHHHHHH | not failed |
| MAAIDAALKAGEKILSIYEDPKSDFEIERKADNSPLTIADRKAHEAIVAILNETPFPVLSEEGKHMDYAVRRGWDTLWIVDPLDGTKEFIKRNGEFTVNIALVQNAVPVMGVIYVPVKKELYFAVEGTGAYKCSGIVGLEDEGVTLQQMIEKSERMPLADARDHFIAVASRSHLTPETETYIADLKKKHGNVELISSGSSIKICLVAEGKADVYPRFAPTMEWDTAAGHAIARAAGMEVYQAGKEEPLRYNKEDLLNPWFIVEAKRER | not failed |
| MAAKRLAVLCIFLLPNTQFRQLRLAETAEELPQLLREAEKASWTYLEFLESITRYELAKREAKSLEKRMKWARFPFVKSLDEFELRGQNVLTARQLSQLRELSWLEQQYNLILLGPPGIGKTYIAIGLGLEAVYRGFHVYFATMGELVQLLKSEEYLNKSKVQLKRIRNADLVIIDDLMYMAMDQREANLFFHLINHLYERSSIILTSNKSPEEWGHLIGDQGITTAILDRLLHRVEVIHGGENEESHRMKNRKSIFSAEVLEHHHHHH | failed |
| MAALWAAEAALTPGEVQAELASDLARTTVTTILSRLYDKGVVDRRGVAMVTTPCRTPRGSPPGACIPSSTVTLTGRPSWPASSPSSIRTTNSFCASYWRPTRDDRPLLIPLLLPFVMPLLARRALDRLAPATALWALTAAALVLAGACVTALGALVLTGLLKLPAFAALGELAHPLRTPTGYLVLPAAAIATGLLTIGAWTLAHSALRQTRAFRTARAEADRRPTAGDLCVVDSPHPDAYALPGRPHRIVVTTAMLRSLKPDERDALFAHERAHNQGATTASWSIGSAACRPGRMVSYLGACGARRAGPMRGRRGPRAIPVVCRPVPRSCRGRIVGVSLPSARW | failed |
| MAANGVSSGACAVSEEEARSEAERLLADPRLHVSDRHRAFLRYIVDARFEGRSDTIKAYSIAIDVFKRPASFDPSSDPIVRIEATRLRESLQKYYAQLADEPGARLDIPRGRYVPVFVERDNPPCPEEDGELEDVGLPTEEPTQAASRPEGRNWRHAIMGGAALAAVSLTGSLAYLAASAAHLNTQKPFVALSINASQNDKAAGEAVMEDLAVSLARFGTVRLKSGASGSRVPSDAMEQSLYEINMRYAENESSVSLWWQVSDAANGEAVWTDEERRPVAAGSREEAMRDLVFAVSRRLARPAGIINTIELRRNLPSSTIGNVCVLRGEFAVEQRDAAGLEAARSCLAATIASDPTDADAMATLARVYVWIGRATGDDSYFGRGLELANRAATLSPSSPRAALAQLGVQYQLGQNEISIAAGRRGVALNPENADLLAKLSMVVFLTGHWDEGVQLARQATEIAGQPIRDASFVMILNDYRQERYAQAVFLARQVPAPDAPTTVLKLAAIARLGDRPVTQQEIAAARLQHPDLERTVTAMFSGARYDSNLRDALRAGILEAGLKMPELASNGAM | failed |
| MAANNRRMSGKKGAQVGSGGKRRRGLEGKGPTPPAEMRKGHAKQRAANAKARRTTGGRPQQRRGGGRSTSELVVGRNPVYEALREGVPASTLYVQQFIDNDERVREALQLAAERGGINLMEAPRPELDRMTNGLNHQGLVLQVPPYEYAHPEDLVAAAHDEGIDPLIVALDGVTDPRNLGAVVRSVSAFGGHGVVVPERRAAGMTAGAWKTSAGTAARTPVARATNLTRALEQYQKAGITVVGLAADGEAELGDLAALDGPVVIVVGSEGKGLSRLVGETCDFRVRIPMPGGAESLNAGVAAGIVLYEAARRRS | failed |
| MAANNRSDHGSDENTRLYNPYQNYEVPINKSQYLYKLPTSPEFLFTEEALRQRRSWGENLTFYTGTAYLGGSVAGASVGVITGVKSFESGDTTKLKINRILNSSGQTGRTWGNRIGIIGLVYAGIESGIVAATDRDDVWTSVVAGLGTGAVCRAARGVRSAAVAGALGGLAAGAVVAGKQIVKRYVPI | failed |
| MAANSNSRVASNHTSKKQKVRRNIHPFTNNTRIKRASKIVKFNDSGEGDHVSDQRSNKENVLTYKSLKSRASDLLKMRETLPVYQHKREIMSYIESNPVTVLIGETGSGKSTQIPQFVLEKLYDTKKHGSIAVTQPRRVAAINLATRVAQEHGCKLGEQVGYSVRFDNTTTTRTRLKYLTDGMLLRELMMNSDLREYSVIVIDEAHERTVLTDLILGFLKSLIQGPRPDLRIIVMSATLQAEKFSEFFNNAPILFVEGRKFDVKQYYLKAPTDDIVDAVIRCCIQINQGEELGDILCFLPGQEEIDKAVTIMEKIAKYVSDEAPVPLIVPYPLYAALPAVQQSLVFAPIKGFKRKVVFSTNIAETSVTISGVKFVVDSGLRKVKVWRHQLGLATLLTVPISQASAMQRSGRAGRESEGKSFRLYCESDYVKLPKQSEPEIARSDVTSPVLMLKRYGVDDLLNWTWFENPGKEAIVMGLQELYELGALDTRGKITKRGQQMALLPLQPHLSSVLIKASEVGCLSQVIDIVSCLSVENLLLNPSPEERDEVNERRLSLCNAGKRYGDLIMLKELFDIYFYELGKSQDASSERNDWCKGLCISIRGFKNVIRVRDQLRVYCKRLFSSISEEDEESKKIGEDGELISKILKCFLTGFIKNTAIGMPDRSYRTVSTGEPISIHPSSMLFMNKSCPGIMYTEYVFTTKGYARNVSRIELSWLQEVVTNAAAVAKQKVSDSK | failed |
| MAAPVVVAPAINLQHMDLPEGNEDVAAVLQTSTQRWLNAAEWSILYNNHNLFPESNSFTIPIEVEGLYRVDNRFNQDSNTWRNTSAPSTCKNAINFYNVRIATGLYRFDDDGDIVMDAEVQGGWVLCRKTVRNRGGGVLTFAHYMWVLV | failed |
| MAARTLPDRFIARAPVPADAPAIARLIAACQEADGDEPDASAEEVLRDWEGLDLGQEAVLVVAPDGEAAAYADVLNRRYVQLSVYGYVHPRFRGMGLGTWLVQWGEEWIQDRMHLAPAEAQVTVQHYIRASSTSALRLMEQHGYRPVRDIWVMAITLDQPPPAPEWPEGITARTFVPGLDERATYEAVEEAFGDIWGRPPSTFERWLSMTQSERKDPELWLLAVETDSGHIVGTCLGQETAGKGWIGSVGVRRPWRGRGIALALLQEVFGVYYRRGVREVELSVDAESRTGAPRLYRRAGMHVKHRYVLHRKEIRPGIDLSTTAAHS | not failed |
| MAASDSRNNRADEPGFVVQPKGEHRVIIVWLHDKDERSSDSLQFVEQLNLKNVKWICPSLVFPDSFIKGVGGLGMGAAVALHFATSCALNHYTINPRVVVGISGWLSNSGSLKRSIESASHGAPARAASQSIFITHGICKSNRLLFQCDSVPHPCDCGEEAVLSLREAGFRDVKFTPFARFGPTAHENNRNVMVKSWLEEKLQLDVTIP | failed |
| MAASSACLVGNGLSVNTTTKQRLSKHFSGRQTSFSSVIRTSKVNVVKASLDGKKKQEGRRDFLKILLGNAGVGLVASGKANADEQGVSSSRMSYSRFLEYLDKDRVNKVDLYENGTIAIVEAVSPELGNRVERVRVQLPGLSQELLQKLRAKNIDFAAHNAQEDQGSVLFNLIGNLAFPALLIGGLFLLSRRSGGGMGGPGGPGNPLQFGQSKAKFQMEPNTGVTFDDVAGVDEAKQDFMEVVEFLKKPERFTAVGAKIPKGVLLIGPPGTGKTLLAKAIAGEAGVPFFSISGSEFVEMFVGVGASRVRDLFKKAKENAPCIVFVDEIDAVGRQRGTGIGGGNDEREQTLNQLLTEMDGFEGNTGVIVVAATNRADILDSALLRPGRFDRQVSVDVPDVKGRTDILKVHAGNKKFDNDVSLEIIAMRTPGFSGADLANLLNEAAILAGRRARTSISSKEIDDSIDRIVAGMEGTVMTDGKSKSLVAYHEVGHAVCGTLTPGHDAVQKVTLIPRGQARGLTWFIPSDDPTLISKQQLFARIVGGLGGRAAEEIIFGDSEVTTGAVGDLQQITGLARQMVTTFGMSDIGPWSLMDSSAQSDVIMRMMARNSMSEKLAEDIDSAVKKLSDSAYEIALSHIKNNREAMDKLVEVLLEKETIGGDEFRAILSEFTEIPPENRVPSSTTTTPASAPTPAAV | not failed |
